Biological target: T1, NKG2D (human, UniProt P26718 78-216, limits assumed)
T1 construct: XENP25379 (human) and XENP25380 (cynomolgus) were the panning antigens; also called Recombinant human NKG2D (XENP25379); CD314
T1 sequence (looked up): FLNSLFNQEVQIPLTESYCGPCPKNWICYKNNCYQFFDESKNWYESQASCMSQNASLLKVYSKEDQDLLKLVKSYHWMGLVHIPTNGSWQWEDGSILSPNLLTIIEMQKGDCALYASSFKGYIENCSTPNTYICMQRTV
Assay: ELISA of phage clones on NKG2D

B1: 1D2B4[NKG2D] (antibody, V domains shown)
VH: EVQLLESGGGLVQPGGSLRLSCAASGFTFSSFGMSWVRQAPGKGLEWVSTISGSGSTTYYADSVKGRFTISRDNSKNTLYLQMNSLRAEDTAVYYCAKGVFSEWHYYFDYWGQGTLVTVSS
VL: not shown
Q: Does B1 bind?
A: binds
